What was measured:
[1] = target: T1, Trimeric SARS-CoV-2 S-protein (SARS-CoV-2 (P0DTC2 reference)); strain …, UniProt P0DTC2, biotin (site-specific, BirA, on the AviTag)); test: BLI
[2] = target: T1, Trimeric SARS-CoV-2 S-protein; test: ELISA

Binder | Kd [1] | EC50 [2]
IgG 15036 (antibody, V domains shown) VH: EVQLVESGGGLVQPGGSLRLSCAASGFDFTAYDIHWVRQAPGKGLEWVAGISASGGYTAYADSVKGRFTISADTSKNTAYLQMNSLRAEDTAVYYCARDGFHSYALDYWGQGTLVTVSS VL: DIQMTQSPSSLSASVGDRVTITCRASQSVSSAVAWYQQKPGKAPKLLIYSASSLYSGVPSRFSGSRSGTDFTLTISSLQPEDFATYYCQQWYSLFTFGQGTKVEIK | 100 ± 100 pM | 500 ± 100 pM
IgG 15046 (antibody, V domains shown) VH: EVQLVESGGGLVQPGGSLRLSCAASGFDFGSYAMHWVRQAPGKGLEWVAGIYASGGYTDYADSVKGRFTISADTSKNTAYLQMNSLRAEDTAVYYCARGWSYYWGFDYWGQGTLVTVSS VL: DIQMTQSPSSLSASVGDRVTITCRASQSVSSAVAWYQQKPGKAPKLLIYSASSLYSGVPSRFSGSRSGTDFTLTISSLQPEDFATYYCQQYDYGLFTFGQGTKVEIK | 2300 ± 600 pM | 1300 ± 300 pM

Reference: publication PMC8028696 (Journal of Molecular Biology, 2021)
